± gives the uncertainty stated by the source.
B1: Transitional endoplasmic reticulum ATPase, residues 26 to 106; numbered along this chain, P55072 (parent)
chain: LIVDEAINEDNSVVSLSQPKMDELQLFRGDTVLLKGKKRREAVCIVLSDDTCSDEKIRMNRVVRNNLRVRLGDVISIQPCP

Variants of: B1
Assay: abundance fitness (aPCA) (normalised: wild type 0, dead -1); higher = more abundant; growth selection in yeast, the domain comes from the species named
Conditions: Homo sapiens

Variant | abundance fitness
I57K | -0.931 ± 0.35
Q18W | -0.206 ± 0.1
Q18R | -0.046 ± 0.062
Q18A | -0.003 ± 0.072
Q18K | -0.037 ± 0.19
Q18G | -0.034 ± 0.043
D73L | -0.922 ± 0.13
D73Q | 0.004 ± 0.096
D73K | -0.309 ± 0.14
D73C | -0.343 ± 0.15
F27V | 0.044 ± 0.048
F27H | 0.028 ± 0.099
F27R | 0.009 ± 0.057
F27W | -0.101 ± 0.06
A6G | 0.024 ± 0.044
A6W | -0.006 ± 0.064
A6R | -0.084 ± 0.053
A6Y | -0.404 ± 0.21
L71Y | -0.391 ± 0.34
L71M | -0.002 ± 0.12
L71Q | -0.028 ± 0.076
L71S | -0.004 ± 0.073
L71R | -0.102 ± 0.055
L71V | -0.048 ± 0.058

Variant | abundance fitness
S76F | -0.043 ± 0.11
S76Y | -0.107 ± 0.12
I75H | -0.695 ± 0.14
I75T | -0.495 ± 0.14
I75Y | -0.916 ± 0.31
I75Q | -1.11 ± 0.28
I75G | -0.944 ± 0.19
L26H | -0.609 ± 0.3
L26S | -0.838 ± 0.11
L26M | -0.047 ± 0.092
L26T | -0.462 ± 0.12
L26W | -0.447 ± 0.054
L26D | -0.768 ± 0.26
L47Q | -0.015 ± 0.088
L47T | -0.116 ± 0.099
N65F | -0.116 ± 0.07
N65H | -0.038 ± 0.11
N65S | 0.025 ± 0.062
N65P | -0.926 ± 0.21
D4M | -0.041 ± 0.077
D4V | -0.082 ± 0.048
D4P | -1.11 ± 0.19
D4N | -0.332 ± 0.16
V63E | -0.223 ± 0.14

Variant | abundance fitness
V63G | -0.253 ± 0.058
V63I | 0.029 ± 0.14
V63W | -0.342 ± 0.1
V63L | 0 ± 0.061
L24E | -0.709 ± 0.079
L24R | -0.509 ± 0.045
L24I | -0.338 ± 0.099
L24H | -0.366 ± 0.21
L24T | -0.705 ± 0.088
R64E | -0.65 ± 0.16
R64T | -0.381 ± 0.096
R64K | -0.365 ± 0.11
A42I | -0.258 ± 0.16
A42D | 0.028 ± 0.12
A42R | 0.028 ± 0.051
A42H | 0.027 ± 0.039
D22S | -0.084 ± 0.05
D22V | -0.049 ± 0.054
D22N | -0.036 ± 0.069
Q25L | -0.149 ± 0.046
Q25G | -0.045 ± 0.05
Q25M | -0.106 ± 0.091
Q25S | 0.027 ± 0.056
Q25V | -0.202 ± 0.052

Variant | abundance fitness
Q78R | -0.071 ± 0.057
Q78C | -0.105 ± 0.089
Q78D | 0.084 ± 0.087
Q78F | -0.345 ± 0.12
E41C | -0.399 ± 0.1
E41V | -0.213 ± 0.056
E41L | -0.296 ± 0.062
I7W | -0.003 ± 0.056
I7M | 0.039 ± 0.066
I7E | 0.127 ± 0.075
I7L | 0.048 ± 0.05
I7C | -0.021 ± 0.1
E5F | 0.016 ± 0.084
E5M | 0.042 ± 0.063
E5P | -0.149 ± 0.051
E5C | -0.013 ± 0.054
M59E | -0.768 ± 0.43
M59F | -0.333 ± 0.11
N60D | -0.077 ± 0.092
N60E | -0.266 ± 0.11
N60S | 0.085 ± 0.074
N60G | -0.065 ± 0.082
N60H | -0.045 ± 0.19
V46E | -0.649 ± 0.1

Variant | abundance fitness
V46N | -0.749 ± 0.21
V46C | -0.048 ± 0.095
V46Y | -0.911 ± 0.23
V46K | -0.528 ± 0.21
L16A | -0.65 ± 0.062
L16G | -0.895 ± 0.063
L16C | -0.083 ± 0.087
L16S | -0.595 ± 0.072
L16E | -0.762 ± 0.15
S53V | -0.022 ± 0.053
S53W | -0.22 ± 0.071
S53P | -0.142 ± 0.1
S53L | -0.026 ± 0.065
V13K | -0.183 ± 0.064
V13N | -0.236 ± 0.12
S17H | -0.396 ± 0.38
S17Q | -0.671 ± 0.1
S17Y | -0.806 ± 0.21
E23N | -0.112 ± 0.31
E23M | 0.085 ± 0.3
E23A | -0.103 ± 0.06
E23C | -0.496 ± 0.26
E23G | -0.079 ± 0.061
I2G | -0.357 ± 0.066

Variant | abundance fitness
I2E | -0.167 ± 0.11
I2K | -0.006 ± 0.11
I2F | -0.103 ± 0.051
I2R | -0.162 ± 0.049
I2A | -0.45 ± 0.12
K56E | -0.088 ± 0.073
K56D | -0.271 ± 0.15
K56S | 0.034 ± 0.061
K56M | -0.112 ± 0.082
K56R | -0.012 ± 0.068
K56I | 0.013 ± 0.15
K56Q | 0.067 ± 0.1
K56F | -0.127 ± 0.1
K20R | -0.019 ± 0.073
K20V | 0.004 ± 0.046
K20S | -0.162 ± 0.056
S15F | 0.087 ± 0.11
S15R | -0.001 ± 0.038
S15C | -0.006 ± 0.066
R70P | -0.327 ± 0.094
R70A | 0.043 ± 0.062
R70I | -0.242 ± 0.19
R70S | 0.036 ± 0.062
I77T | -0.672 ± 0.17

Variant | abundance fitness
I77H | -0.842 ± 0.47
I77W | -0.856 ± 0.27
V32W | -0.988 ± 0.22
V32R | -0.98 ± 0.11
V32A | -0.18 ± 0.057
V32G | -0.587 ± 0.049
V32E | -1.05 ± 0.33
V32S | -0.854 ± 0.11
G29M | -0.098 ± 0.12
C44F | -0.074 ± 0.091
C44V | -0.026 ± 0.074
C44T | -0.066 ± 0.07
C44E | -0.559 ± 0.18
C44N | -0.172 ± 0.25
C44D | -0.707 ± 0.14
P81S | -0.106 ± 0.064
P81F | -0.195 ± 0.16
P81R | -0.221 ± 0.14
C80R | -0.066 ± 0.071
C80M | 0.055 ± 0.2
C80V | -0.06 ± 0.045
S48W | -0.357 ± 0.18
S48K | -0.004 ± 0.11

Reference: the Human Domainome abundance scans (Beltran et al. 2025)
